# Test results from publication PMC2756588.
# How the values were obtained:
# Assay in all cases: SPOT array
# Hse1, P38753 = target: T1, Hse1, P38753; settings: median of control spots 1727
# T1 sequence (P38753 208-285, looked up): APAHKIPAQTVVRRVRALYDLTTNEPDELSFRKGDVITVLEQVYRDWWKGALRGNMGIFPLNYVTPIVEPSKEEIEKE
# Hof1, Q05080 = target: T2, Hof1, Q05080; settings: median of control spots 4086
# T2 sequence (Q05080 590-669, looked up): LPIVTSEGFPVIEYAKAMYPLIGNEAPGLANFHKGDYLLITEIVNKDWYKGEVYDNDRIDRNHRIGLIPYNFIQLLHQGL
# Bud14, P27637 = target: T3, Bud14, P27637; settings: median of control spots 956
# T3 sequence (P27637 247-328, looked up): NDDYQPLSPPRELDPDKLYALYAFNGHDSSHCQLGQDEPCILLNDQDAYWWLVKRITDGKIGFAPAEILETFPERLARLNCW
# Pex13, P80667 = target: T4, Pex13, P80667; settings: median of control spots 1341
# T4 sequence (P80667 295-386, looked up): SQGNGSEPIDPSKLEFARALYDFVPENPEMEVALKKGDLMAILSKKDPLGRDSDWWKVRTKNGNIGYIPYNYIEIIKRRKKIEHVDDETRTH
# Sla1-2, P32790 = target: T5, Sla1-2, P32790; settings: median of control spots 712
# T5 sequence (P32790 60-140, looked up): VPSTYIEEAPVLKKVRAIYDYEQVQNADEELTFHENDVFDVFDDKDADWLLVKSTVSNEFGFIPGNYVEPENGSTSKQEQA
# Lsb1, P53281 = target: T6, Lsb1, P53281; settings: median of control spots 388
# T6 sequence (P53281 45-122, looked up): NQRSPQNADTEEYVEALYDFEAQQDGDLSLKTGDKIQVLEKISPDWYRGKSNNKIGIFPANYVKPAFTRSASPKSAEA
# Sla1-3, P32790 = target: T7, Sla1-3, P32790; settings: median of control spots 5475
# T7 sequence (P32790 344-424, looked up): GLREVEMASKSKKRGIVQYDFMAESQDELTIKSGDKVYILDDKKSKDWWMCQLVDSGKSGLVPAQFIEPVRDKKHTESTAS
# Myo5, Q04439 = target: T8, Myo5, Q04439; settings: median of control spots 471
# T8 sequence (Q04439 1072-1160, looked up): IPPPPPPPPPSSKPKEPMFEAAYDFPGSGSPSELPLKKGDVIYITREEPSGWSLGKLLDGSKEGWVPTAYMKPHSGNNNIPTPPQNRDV
# Boi2, P39969 = target: T9, Boi2, P39969; settings: median of control spots 1161
# T9 sequence (P39969 32-116, looked up): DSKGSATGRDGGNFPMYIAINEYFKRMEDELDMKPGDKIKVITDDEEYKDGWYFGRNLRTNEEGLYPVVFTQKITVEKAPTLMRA
# Pin3, Q06449 = target: T10, Pin3, Q06449; settings: median of control spots 2171
# T10 sequence (Q06449 53-122, looked up): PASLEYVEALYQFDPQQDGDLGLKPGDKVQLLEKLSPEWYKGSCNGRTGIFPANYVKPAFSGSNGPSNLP
# Abp1, P15891 = target: T11, Abp1, P15891; settings: median of control spots 935
# T11 sequence (P15891 535-592, looked up): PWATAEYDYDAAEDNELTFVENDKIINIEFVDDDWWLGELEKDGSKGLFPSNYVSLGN
# Bem1-2, P29366 = settings: median of control spots 4347
# Sequence of Bem1-2, P29366 (P29366 139-227): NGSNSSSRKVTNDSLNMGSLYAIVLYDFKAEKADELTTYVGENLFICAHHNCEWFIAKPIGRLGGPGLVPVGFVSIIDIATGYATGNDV
# Sho1, P40073 = settings: median of control spots 1148
# Sequence of Sho1, P40073 (P40073 287-367): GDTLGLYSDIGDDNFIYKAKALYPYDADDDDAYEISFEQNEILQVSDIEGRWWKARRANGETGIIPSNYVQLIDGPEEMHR
# Lsb4, P32793 = target: T12, Lsb4, P32793; settings: median of control spots 397
# T12 sequence (P32793 402-468, looked up): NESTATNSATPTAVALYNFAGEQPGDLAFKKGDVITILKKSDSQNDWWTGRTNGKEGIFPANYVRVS
# Nbp2, Q12163 = target: T13, Nbp2, Q12163; settings: median of control spots 357
# T13 sequence (Q12163 103-180, looked up): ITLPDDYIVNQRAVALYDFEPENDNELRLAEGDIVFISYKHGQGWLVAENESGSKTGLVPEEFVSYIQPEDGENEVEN
# Lsb3, P43603 = target: T14, Lsb3, P43603; settings: median of control spots 406
# T14 sequence (P43603 385-451, looked up): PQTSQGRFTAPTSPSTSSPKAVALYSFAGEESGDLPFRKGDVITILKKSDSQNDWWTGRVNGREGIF
# Rvs167, P39743 = settings: median of control spots 2707
# Sequence of Rvs167, P39743 (P39743 419-482): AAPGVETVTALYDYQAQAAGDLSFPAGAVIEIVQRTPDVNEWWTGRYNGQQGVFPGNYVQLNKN
# Boi1, P38041 = target: T15, Boi1, P38041; settings: median of control spots 1162
# T15 sequence (P38041 1-86, looked up): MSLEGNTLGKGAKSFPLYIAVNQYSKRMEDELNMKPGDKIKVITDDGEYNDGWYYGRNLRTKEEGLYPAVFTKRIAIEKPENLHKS
# Bzz1-1, P38822 = target: T16, Bzz1-1, P38822; settings: median of control spots 4446
# T16 sequence (P38822 478-572, looked up): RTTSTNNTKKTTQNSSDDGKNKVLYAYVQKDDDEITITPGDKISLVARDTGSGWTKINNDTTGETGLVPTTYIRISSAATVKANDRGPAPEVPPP
# Fus1, P11710 = target: T17, Fus1, P11710; settings: median of control spots 1200
# T17 sequence (P11710 432-512, looked up): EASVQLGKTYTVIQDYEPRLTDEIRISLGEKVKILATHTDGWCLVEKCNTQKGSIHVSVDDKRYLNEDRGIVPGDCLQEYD
# Cdc25, P04821 = target: T18, Cdc25, P04821; settings: median of control spots 969
# T18 sequence (P04821 50-136, looked up): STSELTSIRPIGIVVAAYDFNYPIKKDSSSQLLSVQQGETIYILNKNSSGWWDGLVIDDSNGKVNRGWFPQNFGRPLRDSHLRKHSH
# Cyk3, Q07533 = target: T19, Cyk3, Q07533; settings: median of control spots 1451
# T19 sequence (Q07533 1-83, looked up): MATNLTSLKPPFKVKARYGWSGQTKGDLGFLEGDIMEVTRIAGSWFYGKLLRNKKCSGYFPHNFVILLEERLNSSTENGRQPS
# Bbc1, P47068 = target: T20, Bbc1, P47068; settings: median of control spots 796
# T20 sequence (P47068 1-78, looked up): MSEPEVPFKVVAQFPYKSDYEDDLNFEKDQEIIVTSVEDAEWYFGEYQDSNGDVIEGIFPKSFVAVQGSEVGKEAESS
# Myo3, P36006 = settings: median of control spots 468
# Bzz1-2, P38822 = target: T21, Bzz1-2, P38822; settings: median of control spots 4538
# T21 sequence (P38822 568-633, looked up): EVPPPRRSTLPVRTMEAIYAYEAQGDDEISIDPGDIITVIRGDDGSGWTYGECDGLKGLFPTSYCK
# Bem1-1, P29366 = settings: median of control spots 4282
# Sequence of Bem1-1, P29366 (P29366 55-141): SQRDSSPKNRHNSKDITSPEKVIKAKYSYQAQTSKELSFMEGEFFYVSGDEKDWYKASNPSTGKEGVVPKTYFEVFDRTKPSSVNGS
# GST = settings: median of control spots 978
Binder,"SPOT intensity (Hse1, P38753)","SPOT intensity (Hof1, Q05080)","SPOT intensity (Bud14, P27637)","SPOT intensity (Pex13, P80667)","SPOT intensity (Sla1-2, P32790)","SPOT intensity (Lsb1, P53281)","SPOT intensity (Sla1-3, P32790)","SPOT intensity (Myo5, Q04439)","SPOT intensity (Boi2, P39969)","SPOT intensity (Pin3, Q06449)","SPOT intensity (Abp1, P15891)","SPOT intensity (Bem1-2, P29366)","SPOT intensity (Sho1, P40073)","SPOT intensity (Lsb4, P32793)","SPOT intensity (Nbp2, Q12163)","SPOT intensity (Lsb3, P43603)","SPOT intensity (Rvs167, P39743)","SPOT intensity (Boi1, P38041)","SPOT intensity (Bzz1-1, P38822)","SPOT intensity (Fus1, P11710)",other results
EAEEAAPQLPSRSSA,0,0,0,6,0,62,2,0,1,2,0,0,0,529,0,956,75,1,2,1,"SPOT intensity (Cdc25, P04821): 2; SPOT intensity (Cyk3, Q07533): 0; SPOT intensity (Bbc1, P47068): 0; SPOT intensity (Myo3, P36006): 0; SPOT intensity (Bzz1-2, P38822): 2; SPOT intensity (Bem1-1, P29366): 0; SPOT intensity (GST): 0"
LASNSPPVYPKRIRH,1,1,0,3,0,0,0,0,0,0,68,0,7,107,0,167,0,0,0,0,"SPOT intensity (Cdc25, P04821): 0; SPOT intensity (Cyk3, Q07533): 0; SPOT intensity (Bbc1, P47068): 4; SPOT intensity (Myo3, P36006): 0; SPOT intensity (Bzz1-2, P38822): 0; SPOT intensity (Bem1-1, P29366): 0; SPOT intensity (GST): 0"
EQEEIAPSLPSRNSI,0,2,0,417,0,20,0,0,1,0,0,1,0,517,0,998,31,0,0,0,"SPOT intensity (Cdc25, P04821): 1; SPOT intensity (Cyk3, Q07533): 1; SPOT intensity (Bbc1, P47068): 0; SPOT intensity (Myo3, P36006): 0; SPOT intensity (Bzz1-2, P38822): 1; SPOT intensity (Bem1-1, P29366): 1; SPOT intensity (GST): 2"
QGYPRQPQRPQRYHP,3,3,1,7,0,1,0,0,0,2,9,1,0,16,0,46,0,0,0,0,"SPOT intensity (Cdc25, P04821): 0; SPOT intensity (Cyk3, Q07533): 1; SPOT intensity (Bbc1, P47068): 34; SPOT intensity (Myo3, P36006): 0; SPOT intensity (Bzz1-2, P38822): 0; SPOT intensity (Bem1-1, P29366): 0; SPOT intensity (GST): 1"
